US20240376185A1 (SMIVET B V, published 2024)

Tests used:
[1] = biological target: T1, tetanus neurotoxin (TeNT), authentic tetanus holotoxin (Clostridium tetani, UniProt P04958 2-1315); test: ELISA: directly coated TeNT, anti-his6 PO
[2] = biological target: dog IgG (chrompure dog IgG) (dog)
[3] = biological target: T1, tetanus neurotoxin (TeNT), authentic …; test: bridging ELISA: coated TeNT, SDA, biotinylated TeNT, StrepPO (bivalent binding)
Target sequence in this assay (P04958 2-457 limits assumed, chain 1 of 2): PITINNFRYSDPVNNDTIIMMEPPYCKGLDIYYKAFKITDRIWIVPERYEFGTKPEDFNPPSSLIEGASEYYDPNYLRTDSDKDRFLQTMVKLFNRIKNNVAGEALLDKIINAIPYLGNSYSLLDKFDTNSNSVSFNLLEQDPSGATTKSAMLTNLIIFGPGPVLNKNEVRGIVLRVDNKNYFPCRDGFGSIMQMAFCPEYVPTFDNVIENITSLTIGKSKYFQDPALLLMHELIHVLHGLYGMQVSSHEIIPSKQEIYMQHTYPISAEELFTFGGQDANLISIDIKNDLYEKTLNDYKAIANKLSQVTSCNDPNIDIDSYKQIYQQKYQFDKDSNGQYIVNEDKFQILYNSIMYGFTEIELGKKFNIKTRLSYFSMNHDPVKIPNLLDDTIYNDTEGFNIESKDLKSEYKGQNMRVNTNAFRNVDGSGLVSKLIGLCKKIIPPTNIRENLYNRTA
Target sequence in this assay (P04958 458-1315 limits assumed, chain 2 of 2): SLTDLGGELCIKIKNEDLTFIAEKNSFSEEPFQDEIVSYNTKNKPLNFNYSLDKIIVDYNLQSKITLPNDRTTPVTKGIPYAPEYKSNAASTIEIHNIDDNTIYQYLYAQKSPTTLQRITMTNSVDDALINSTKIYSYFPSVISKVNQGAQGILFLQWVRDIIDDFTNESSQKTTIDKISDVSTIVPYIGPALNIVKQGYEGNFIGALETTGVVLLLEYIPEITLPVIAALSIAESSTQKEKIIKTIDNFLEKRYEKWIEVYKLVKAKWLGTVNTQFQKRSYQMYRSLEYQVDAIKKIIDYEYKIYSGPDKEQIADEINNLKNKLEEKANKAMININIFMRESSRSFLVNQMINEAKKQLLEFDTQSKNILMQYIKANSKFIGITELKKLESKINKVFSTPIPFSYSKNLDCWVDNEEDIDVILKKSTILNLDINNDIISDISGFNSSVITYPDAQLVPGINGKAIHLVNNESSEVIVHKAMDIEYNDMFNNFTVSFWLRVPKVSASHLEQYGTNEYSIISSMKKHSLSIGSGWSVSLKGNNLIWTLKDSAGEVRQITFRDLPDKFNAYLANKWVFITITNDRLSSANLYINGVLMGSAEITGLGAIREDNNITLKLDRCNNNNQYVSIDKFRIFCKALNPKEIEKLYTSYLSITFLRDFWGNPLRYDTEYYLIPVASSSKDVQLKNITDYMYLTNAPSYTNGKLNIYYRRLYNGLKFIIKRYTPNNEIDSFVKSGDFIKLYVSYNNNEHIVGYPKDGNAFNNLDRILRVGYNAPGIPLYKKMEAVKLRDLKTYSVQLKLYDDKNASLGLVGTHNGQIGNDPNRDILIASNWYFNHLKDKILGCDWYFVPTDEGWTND

[4] = biological target: T1, tetanus neurotoxin (TeNT), authentic …; test: ELISA: directly coated TeNT, goat anti-llama Ig PO
Target sequence in this assay (P04958 2-457 limits assumed, chain 1 of 2): as the sequence (P04958 2-457 limits assumed, chain 1 of 2) above
Target sequence in this assay (P04958 458-1315 limits assumed, chain 2 of 2): as the sequence (P04958 458-1315 limits assumed, chain 2 of 2) above

[5] = biological target: T1, tetanus neurotoxin (TeNT), authentic …; test: ELISA: directly coated TeNT, anti-his6 PO; remark: listed apart in the source
Target sequence in this assay (P04958 2-457 limits assumed, chain 1 of 2): as the sequence (P04958 2-457 limits assumed, chain 1 of 2) above
Target sequence in this assay (P04958 458-1315 limits assumed, chain 2 of 2): as the sequence (P04958 458-1315 limits assumed, chain 2 of 2) above

[6] = biological target: T1, tetanus neurotoxin (TeNT), authentic …; test: bridging ELISA: coated TeNT, SDA, biotinylated TeNT, StrepPO (bivalent binding); remark: listed apart in the source
[7] = biological target: T1, tetanus neurotoxin (TeNT), authentic …; test: GT1b-TeNT inhibition ELISA
Target sequence in this assay (P04958 2-457 limits assumed, chain 1 of 2): as the sequence (P04958 2-457 limits assumed, chain 1 of 2) above
Target sequence in this assay (P04958 458-1315 limits assumed, chain 2 of 2): as the sequence (P04958 458-1315 limits assumed, chain 2 of 2) above

[8] = biological target: T1, tetanus neurotoxin (TeNT), authentic …; test: GT1b-TeNT inhibition ELISA; remark: listed apart in the source
Target sequence in this assay (P04958 2-457 limits assumed, chain 1 of 2): as the sequence (P04958 2-457 limits assumed, chain 1 of 2) above
Target sequence in this assay (P04958 458-1315 limits assumed, chain 2 of 2): as the sequence (P04958 458-1315 limits assumed, chain 2 of 2) above

[9] = biological target: T1, tetanus neurotoxin (TeNT), authentic …; test: ELISA: directly coated TeNT, goat anti-llama Ig PO; remark: listed apart in the source
Target sequence in this assay (P04958 2-457 limits assumed, chain 1 of 2): as the sequence (P04958 2-457 limits assumed, chain 1 of 2) above
Target sequence in this assay (P04958 458-1315 limits assumed, chain 2 of 2): as the sequence (P04958 458-1315 limits assumed, chain 2 of 2) above

[10] = biological target: T1, tetanus neurotoxin (TeNT), authentic …; test: BLI (Octet Red96): biotinylated SDA on SA sensor, TeNT as analyte
Target sequence in this assay (P04958 2-457 limits assumed): as the sequence (P04958 2-457 limits assumed, chain 1 of 2) above

[11] = biological target: T2, tetanus neurotoxin (TeNT), authentic tetanus holotoxin (Clostridium tetani, UniProt P04958 2-1315); test: ELISA, TeNT captured with cAb-TT2, biotinylated binder
[12] = biological target: T2, tetanus neurotoxin (TeNT), authentic …; test: competition ELISA on TeNT, binder biotinylated; competitor SVT16L
[13] = biological target: T2, tetanus neurotoxin (TeNT), authentic …; test: competition ELISA on TeNT, binder biotinylated; competitor SVT08L
[14] = biological target: T2, tetanus neurotoxin (TeNT), authentic …; test: GT1b-TeNT inhibition ELISA, EC at A450 0.59
[15] = biological target: T2, tetanus neurotoxin (TeNT), authentic …; test: ELISA, directly coated TeNT, unlabelled binder
[16] = biological target: T2, tetanus neurotoxin (TeNT), authentic …; test: competition ELISA on TeNT, binder biotinylated; competitor mAb 6E7
[17] = biological target: T2, tetanus neurotoxin (TeNT), authentic …; test: competition ELISA on TeNT, binder biotinylated; competitor mAb 14F5
[18] = biological target: T2, tetanus neurotoxin (TeNT), authentic …; test: competition ELISA on TeNT, binder biotinylated; competitor SVT22L
[19] = biological target: T2, tetanus neurotoxin (TeNT), authentic …; test: competition ELISA on TeNT, binder biotinylated; competitor mAb 11n185
[20] = biological target: T2, tetanus neurotoxin (TeNT), authentic …; test: competition ELISA on TeNT, binder biotinylated; competitor SVT02L
[21] = biological target: T2, tetanus neurotoxin (TeNT), authentic …; test: ELISA, TeNT captured with cAb-TT2, unlabelled binder
[22] = biological target: T2, tetanus neurotoxin (TeNT), authentic …; test: competition ELISA on TeNT, binder biotinylated; competitor SVT15L-3FW4M
[23] = biological target: T2, tetanus neurotoxin (TeNT), authentic …; test: competition ELISA on TeNT, binder biotinylated; competitor SVT06L
[24] = biological target: T2, tetanus neurotoxin (TeNT), authentic …; test: competition ELISA on TeNT, binder biotinylated; competitor mAb 6F57
[25] = biological target: T2, tetanus neurotoxin (TeNT), authentic …; test: competition ELISA on TeNT, binder biotinylated; competitor SVT34L
[26] = biological target: T2, tetanus neurotoxin (TeNT), authentic …; test: competition ELISA on TeNT, binder biotinylated; competitor SVT03L
[27] = biological target: T3, recombinant tetanus toxin fragment C (rTTC) (Clostridium tetani, UniProt P04958 865-1315); test: ELISA, directly coated rTTC, unlabelled binder
T3 sequence: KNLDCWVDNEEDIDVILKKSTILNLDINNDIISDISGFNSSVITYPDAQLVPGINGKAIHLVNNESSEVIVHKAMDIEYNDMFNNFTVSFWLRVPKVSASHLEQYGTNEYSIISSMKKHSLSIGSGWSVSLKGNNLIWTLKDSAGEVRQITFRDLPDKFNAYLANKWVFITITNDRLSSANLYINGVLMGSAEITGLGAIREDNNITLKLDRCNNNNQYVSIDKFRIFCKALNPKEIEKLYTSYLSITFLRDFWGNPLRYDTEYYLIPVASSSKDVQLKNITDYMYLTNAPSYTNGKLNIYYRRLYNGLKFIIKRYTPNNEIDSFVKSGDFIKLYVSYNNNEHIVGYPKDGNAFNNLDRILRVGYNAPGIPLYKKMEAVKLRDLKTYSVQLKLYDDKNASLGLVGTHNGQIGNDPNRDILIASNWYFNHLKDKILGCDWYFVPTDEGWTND

[28] = biological target: T2, tetanus neurotoxin (TeNT), authentic …; test: competition ELISA on TeNT, binder biotinylated; competitor SVT13L
[29] = biological target: T2, tetanus neurotoxin (TeNT), authentic …; test: ELISA, directly coated TeNT, biotinylated binder
[30] = biological target: T2, tetanus neurotoxin (TeNT), authentic …; test: GT1b-TeNT inhibition ELISA, unlabelled binder
[31] = biological target: T2, tetanus neurotoxin (TeNT), authentic …; test: competition ELISA on TeNT, binder biotinylated; competitor SVT15L
[32] = biological target: Tetanus neurotoxin (TeNT), authentic tetanus holotoxin (Clostridium tetani, UniProt P04958 2-1315)
Tetanus neurotoxin (TeNT), authentic tetanus holotoxin, sequence (P04958 2-457 limits assumed): as the sequence (P04958 2-457 limits assumed, chain 1 of 2) above

B1: SVG13L (VHH)
VHH: QVQLQESGGGLVQPGGSLRLSCEASGFTFDDYGMSWVRQAPGKGLEWVSSLTPNGGSTYYADSVKGRFTISRDNAKNTLYLQMNSLKPEDTALYYCAKNSYYGAMDYWGKGTLVTVSS
Effective SDA Concentration at A450 0.15 [1]: > 1000 ng/mL | binding result [1]: no binding (tested: 1000 ng/ml (A450 0.15 not reached)) | maximal absorbance value [2]: 0.16 A450 | maximal absorbance value [3]: 0.17 A450 | Effective SDA Concentration at A450 0.15 [4]: > 1000 ng/mL | maximal absorbance value [5]: 0.08 A450 | Effective SDA Concentration at A450 0.3 [6]: > 1000 ng/mL | Effective SDA Concentration at A450 0.56 [7]: > 1000 ng/mL | minimal absorbance value (GT1b-TeNT inhibition) [8]: 0.72 A450 | maximal absorbance value [9]: 0.09 A450

B2: SVT06L (VHH)
VHH: QVQLQESGGGSVQAGGSLRLSCTASELSYDDYTIAWFRRAAGEGRVEDGEGVASITKSYDRAYDNKINYGHSVKGRFTISRDNAKNTVYLQMTDLLPSDTAVYYCALDITPPGGVGASLTEGFLFDYWGQGTQVTVSS
Kd [10]: 0.535 nM | koff [10]: 6.27e-05 s⁻¹ | kon [10]: 117000 M⁻¹ s⁻¹ | Effective SDA Concentration at A450 0.15 [1]: 4.9 ng/mL | maximal absorbance value [3]: 0.35 A450 | Effective SDA Concentration at A450 0.15 [4]: 14 ng/mL | maximal absorbance value [5]: 1.44 A450 | Effective SDA Concentration at A450 0.3 [6]: 64 ng/mL | Effective SDA Concentration at A450 0.56 [7]: 33 ng/mL | minimal absorbance value (GT1b-TeNT inhibition) [8]: 0.27 A450 | maximal absorbance value [9]: 0.32 A450

B3: SVT02-GS2-SVG06M4-H6 (bispecific antibody)
chain: QVQLQQSGGGSVQAGGSLRLSCVGPQRTFSTYGMGWFRQAPGKEREFVAGINYKGDTTYYADSVKGRFTISRDNAKNTLYLQMDSLKPEDRAVYQCARKGGLGGDYRDAGQYRYWGQGTQVTVSSGGGGSGGGSEVQLVESGGALVQPGGSLRLSCAASGFPFSAYDMTWVRQAPGQGLEWVSTIHKSGGITTYADSVKGRFTISRDNAKNTLYLQMNNLESEDTAVYYCAKALRAHNSDYVGRNALGSWGQGTQVTVSSHHHHHH
maximal absorbance value [2]: 0.06 A450

B4: SVT22L (VHH)
VHH: QVQLQESGGGLVQAGESLRLSCTASGISFDDYAIGWFRQAPGQQRKGVACISKADGRTDYLGSVKGRFTLSTDNTKNTVHLQMNNLKPEDTALYTCAAEYKSCGMGYKPIDYWGQGMQVTVSS
EC resulting in A450 0.2 [11]: 2.6 ng/mL | maximal absorbance at 450 nm [11]: 0.799 | % inhibition of binding [12]: 92% | % inhibition of binding [13]: 1% | concentration giving A450 of 0.59 [14]: 0.105 µg/mL | EC resulting in A450 0.2 [15]: 2 ng/mL | maximal absorbance at 450 nm [15]: 1.59 | % inhibition of binding [16]: 8% | % inhibition of binding [17]: 0% | % inhibition of binding [18]: 94% | % inhibition of binding [19]: 3% | % inhibition of binding [20]: 4% | EC resulting in A450 0.15 [21]: 5.4 ng/mL | maximal absorbance at 450 nm [21]: 0.318 | % inhibition of binding [22]: 11% | % inhibition of binding [23]: 6% | % inhibition of binding [24]: 10% | % inhibition of binding [25]: 93% | % inhibition of binding [26]: 5% | maximal absorbance at 450 nm [27]: 0.981 | % inhibition of binding [28]: 95% | EC resulting in A450 0.4 [29]: 1.3 ng/mL | maximal absorbance at 450 nm [29]: 1.34 | minimal absorbance at 450 nm [30]: 0.107 | % inhibition of binding [31]: 2%

B5: SVT34L (VHH)
VHH: QVQLQESGGGLVQPGGSLRLSCAASGRTISSYAMGWFRQAPGKQREFVAAISRSGGNTYYTDSVKGRFIISRDNAKNTLYLQMNNLKPEETAVYYCAADPNLMYESKWKYRALEAWGQGTLVTVSS
EC resulting in A450 0.2 [11]: 3.5 ng/mL | maximal absorbance at 450 nm [11]: 0.669 | % inhibition of binding [12]: 93% | % inhibition of binding [13]: -4% | concentration giving A450 of 0.59 [14]: 0.046 µg/mL | EC resulting in A450 0.2 [15]: 1 ng/mL | maximal absorbance at 450 nm [15]: 1.54 | % inhibition of binding [16]: 10% | % inhibition of binding [17]: 4% | % inhibition of binding [18]: 94% | % inhibition of binding [19]: 2% | % inhibition of binding [20]: 2% | EC resulting in A450 0.15 [21]: 3.2 ng/mL | maximal absorbance at 450 nm [21]: 0.335 | % inhibition of binding [22]: 14% | % inhibition of binding [23]: -2% | % inhibition of binding [24]: 13% | % inhibition of binding [25]: 95% | % inhibition of binding [26]: 0% | maximal absorbance at 450 nm [27]: 0.886 | % inhibition of binding [28]: 93% | EC resulting in A450 0.4 [29]: 1.7 ng/mL | maximal absorbance at 450 nm [29]: 1.29 | minimal absorbance at 450 nm [30]: 0.103 | % inhibition of binding [31]: 3%

B6: SVT03L (VHH)
VHH: QVQLQQSGGGSVQTGDSLTLSCTASGGSLNSYFVGWFRQSGGKEREFVSVIARTGRSTSYADSVKGRFTISRDNAANTVFLTMNNLRPDDTAIYYCAAVGRPGVLHLTQSYDYWGQGTQVTVSS
Kd [32]: 0.0014 nM | koff [32]: 6.64e-06 s⁻¹ | kon [32]: 4.62e+06 M⁻¹ s⁻¹

B7: SVT15L (VHH)
VHH: QVQLQESGGGLVQTGGSLRLSCRASGRAFANYHFGWFRQAPGKDREFVASISWKGGSTYYANFALGRFTSSVDRAESSVYLQMSGLTPEDTATYYCAAHDGGDWNYHTGMDYWGKGILVTVSS
Kd [10]: 0.413 nM | koff [10]: 3.87e-05 s⁻¹ | kon [10]: 93600 M⁻¹ s⁻¹
